Experimental data published in patent US20200317768A1 (published 2020).

T1: cynomolgus monkey FcγRIIIaS extracellular domain, His-tagged (cynomolgus monkey, UniProt Q8SPW2 21-206 at identity 1.00))
T1 construct: also called cyno FcγRIIIaS; cynoFcγRIIIaS
T1 chain: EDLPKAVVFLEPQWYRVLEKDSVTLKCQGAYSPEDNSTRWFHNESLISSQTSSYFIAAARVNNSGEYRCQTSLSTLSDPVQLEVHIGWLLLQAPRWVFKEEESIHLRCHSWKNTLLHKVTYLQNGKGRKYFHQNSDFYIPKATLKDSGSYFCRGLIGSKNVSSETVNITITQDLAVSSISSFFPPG

T2: cynomolgus monkey FcγRIIa1 extracellular domain, His-tagged (cynomolgus monkey)
T2 construct: also called cyno FcγRIIa1; cynoFcgRIIa1
T2 chain: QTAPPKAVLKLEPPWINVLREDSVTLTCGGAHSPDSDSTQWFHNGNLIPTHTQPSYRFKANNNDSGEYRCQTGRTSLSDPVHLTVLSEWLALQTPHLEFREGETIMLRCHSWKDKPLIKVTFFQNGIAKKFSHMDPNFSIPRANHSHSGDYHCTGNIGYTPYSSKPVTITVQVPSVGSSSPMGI

T3: cynomolgus monkey FcγRIIa3 extracellular domain, His-tagged (cynomolgus monkey)
T3 construct: also called cyno FcγRIIa3; cynoFcgRIIa3
T3 chain: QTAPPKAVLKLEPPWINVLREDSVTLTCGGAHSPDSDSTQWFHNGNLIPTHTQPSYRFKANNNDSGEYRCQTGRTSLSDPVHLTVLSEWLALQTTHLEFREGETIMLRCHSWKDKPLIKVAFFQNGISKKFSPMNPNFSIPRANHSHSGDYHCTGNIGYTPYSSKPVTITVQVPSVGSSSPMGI

T4: human FcγRIIb extracellular domain, His-tagged (human, UniProt P31994 43-217)
T4 construct: also called FcgRIIb (human)
T4 sequence: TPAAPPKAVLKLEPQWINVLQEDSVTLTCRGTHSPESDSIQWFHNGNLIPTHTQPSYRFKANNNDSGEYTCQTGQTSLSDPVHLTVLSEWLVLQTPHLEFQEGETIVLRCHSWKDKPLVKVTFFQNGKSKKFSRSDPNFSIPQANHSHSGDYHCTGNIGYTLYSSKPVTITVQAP

T5: human FcγRIIaR extracellular domain, His-tagged (human, UniProt P12318 34-217)
T5 construct: also called human FcγRIIa (type R); FcgRIIaR
T5 chain: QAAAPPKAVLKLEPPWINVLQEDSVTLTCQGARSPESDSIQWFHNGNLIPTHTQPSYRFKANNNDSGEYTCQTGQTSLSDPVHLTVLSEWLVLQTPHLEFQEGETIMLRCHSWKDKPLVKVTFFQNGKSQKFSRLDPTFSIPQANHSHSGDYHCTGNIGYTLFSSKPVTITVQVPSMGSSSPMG

T6: cynomolgus monkey FcγRIIa2 extracellular domain, His-tagged (cynomolgus monkey)
T6 construct: also called cyno FcγRIIa2; cynoFcgRIIa2
T6 chain: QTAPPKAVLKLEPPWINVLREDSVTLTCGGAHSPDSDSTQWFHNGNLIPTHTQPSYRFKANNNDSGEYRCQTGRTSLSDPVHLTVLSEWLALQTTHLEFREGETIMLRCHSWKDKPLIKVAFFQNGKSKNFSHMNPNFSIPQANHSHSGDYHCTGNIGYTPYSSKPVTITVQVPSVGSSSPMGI

T7: cynomolgus monkey FcγRIIb extracellular domain, His-tagged (cynomolgus monkey)
T7 construct: also called cyno FcγRIIb; cynoFcγRIIb
T7 chain: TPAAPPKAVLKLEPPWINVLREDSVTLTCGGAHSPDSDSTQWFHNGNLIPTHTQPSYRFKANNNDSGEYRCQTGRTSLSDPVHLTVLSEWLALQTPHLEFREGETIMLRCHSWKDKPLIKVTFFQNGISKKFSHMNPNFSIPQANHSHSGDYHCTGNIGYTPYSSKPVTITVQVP


Experiments:
Assay in all cases: SPR; KD of SG1 / KD of variant;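 further: relative to parent M103205H795-SG1 carrying the SG1 human heavy chain constant region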
[1] = target: T1, cynomolgus monkey FcγRIIIaS …
[2] = target: T8, human FcγRIIIaV extracellular domain, His-tagged (human, UniProt P08637 17-208)
T8 construct: also called FcgRIIIaV

[3] = target: T2, cynomolgus monkey FcγRIIa1 …
[4] = target: T3, cynomolgus monkey FcγRIIa3 …
[5] = target: T4, human FcγRIIb extracellular domain, …
[6] = target: T5, human FcγRIIaR extracellular domain, …
[7] = target: T6, cynomolgus monkey FcγRIIa2 …
[8] = target: T7, cynomolgus monkey FcγRIIb extracellular …

T8 sequence (P08637 17-208 F176V): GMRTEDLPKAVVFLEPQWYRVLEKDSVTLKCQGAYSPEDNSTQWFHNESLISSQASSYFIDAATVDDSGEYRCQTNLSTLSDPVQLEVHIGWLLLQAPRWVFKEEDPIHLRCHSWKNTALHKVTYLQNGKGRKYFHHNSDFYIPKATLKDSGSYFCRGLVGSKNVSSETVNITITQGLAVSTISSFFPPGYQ

| KD fold (SG1 = 1) [1] [fold] | KD fold (SG1 = 1) [2] [fold] | KD fold (SG1 = 1) [3] [fold] | KD fold (SG1 = 1) [4] [fold] | KD fold (SG1 = 1) [5] [fold] | KD fold (SG1 = 1) [6] [fold] | KD fold (SG1 = 1) [7] [fold] | KD fold (SG1 = 1) [8] [fold] | Binder |
| --- | --- | --- | --- | --- | --- | --- | --- | --- |
| 4.19 | 3.38 | 2 | 2.6 | 2.9 | 2.8 | 3.2 | 2.5 | M103205H795-MY069/M103202L889-SK1 (antibody, human IgG1, kappa, Substitution put into M103205H795-SG1) heavy: not shown light: DIVMTQSPATLSLSPGERATLSCTSSQSVYHANWLSWFQQKPGQPPKLLIYWASTLAYGVPSRFSGSGSGTDFTLTISSLQPEDAATYYCAGGYGGGRYAFGQGTKVEIKRTVAAPSVFIFPPSDEQLKSGTASVVCLLNNFYPREAKVQWKVDNALQSGNSQESVTEQDSKDSTYSLSSTLTLSKADYEKHKVYACEVTHQGLSSPVTKSFNRGEC |
| 0.73 | 1.16 | 1.4 | 3.6 | 1.8 | 1.5 | 1.8 | 1.5 | M103205H795-MY070/M103202L889-SK1 (antibody, human IgG1, kappa, Substitution put into M103205H795-SG1) heavy: not shown light: DIVMTQSPATLSLSPGERATLSCTSSQSVYHANWLSWFQQKPGQPPKLLIYWASTLAYGVPSRFSGSGSGTDFTLTISSLQPEDAATYYCAGGYGGGRYAFGQGTKVEIKRTVAAPSVFIFPPSDEQLKSGTASVVCLLNNFYPREAKVQWKVDNALQSGNSQESVTEQDSKDSTYSLSSTLTLSKADYEKHKVYACEVTHQGLSSPVTKSFNRGEC |
| 3.27 | 3.52 | 1.4 | 4 | 2.4 | 2.2 | 1.8 | 1.4 | M103205H795-MY065/M103202L889-SK1 (antibody, human IgG1, kappa, Substitution put into M103205H795-SG1) heavy: not shown light: DIVMTQSPATLSLSPGERATLSCTSSQSVYHANWLSWFQQKPGQPPKLLIYWASTLAYGVPSRFSGSGSGTDFTLTISSLQPEDAATYYCAGGYGGGRYAFGQGTKVEIKRTVAAPSVFIFPPSDEQLKSGTASVVCLLNNFYPREAKVQWKVDNALQSGNSQESVTEQDSKDSTYSLSSTLTLSKADYEKHKVYACEVTHQGLSSPVTKSFNRGEC |
| 3 | 3.68 | 1.3 | 2.5 | 1.9 | 1.6 | 2 | 1.6 | M103205H795-MY064/M103202L889-SK1 (antibody, human IgG1, kappa, Substitution put into M103205H795-SG1) heavy: not shown light: DIVMTQSPATLSLSPGERATLSCTSSQSVYHANWLSWFQQKPGQPPKLLIYWASTLAYGVPSRFSGSGSGTDFTLTISSLQPEDAATYYCAGGYGGGRYAFGQGTKVEIKRTVAAPSVFIFPPSDEQLKSGTASVVCLLNNFYPREAKVQWKVDNALQSGNSQESVTEQDSKDSTYSLSSTLTLSKADYEKHKVYACEVTHQGLSSPVTKSFNRGEC |
| 0.67 | 0.58 | 1.5 | 3 | 2.7 | 2.1 | 1.9 | 1.8 | M103205H795-MY068/M103202L889-SK1 (antibody, human IgG1, kappa, Substitution put into M103205H795-SG1) heavy: not shown light: DIVMTQSPATLSLSPGERATLSCTSSQSVYHANWLSWFQQKPGQPPKLLIYWASTLAYGVPSRFSGSGSGTDFTLTISSLQPEDAATYYCAGGYGGGRYAFGQGTKVEIKRTVAAPSVFIFPPSDEQLKSGTASVVCLLNNFYPREAKVQWKVDNALQSGNSQESVTEQDSKDSTYSLSSTLTLSKADYEKHKVYACEVTHQGLSSPVTKSFNRGEC |
| 5.37 | 5.06 | 2.3 | 8.5 | 7 | 5.2 | 3.4 | 5.3 | M103205H795-MY063/M103202L889-SK1 (antibody, human IgG1, kappa, Substitution put into M103205H795-SG1) heavy: not shown light: DIVMTQSPATLSLSPGERATLSCTSSQSVYHANWLSWFQQKPGQPPKLLIYWASTLAYGVPSRFSGSGSGTDFTLTISSLQPEDAATYYCAGGYGGGRYAFGQGTKVEIKRTVAAPSVFIFPPSDEQLKSGTASVVCLLNNFYPREAKVQWKVDNALQSGNSQESVTEQDSKDSTYSLSSTLTLSKADYEKHKVYACEVTHQGLSSPVTKSFNRGEC |

The next lines start with the binder.

| Binder | KD fold (SG1 = 1) [1] [fold] | KD fold (SG1 = 1) [2] [fold] | KD fold (SG1 = 1) [3] [fold] | KD fold (SG1 = 1) [4] [fold] | KD fold (SG1 = 1) [5] [fold] | KD fold (SG1 = 1) [6] [fold] | KD fold (SG1 = 1) [7] [fold] | KD fold (SG1 = 1) [8] [fold] |
| --- | --- | --- | --- | --- | --- | --- | --- | --- |
| M103205H795-MY043/M103202L889-SK1 (antibody, human IgG1, kappa, Substitution put into M103205H795-SG1) heavy: not shown light: DIVMTQSPATLSLSPGERATLSCTSSQSVYHANWLSWFQQKPGQPPKLLIYWASTLAYGVPSRFSGSGSGTDFTLTISSLQPEDAATYYCAGGYGGGRYAFGQGTKVEIKRTVAAPSVFIFPPSDEQLKSGTASVVCLLNNFYPREAKVQWKVDNALQSGNSQESVTEQDSKDSTYSLSSTLTLSKADYEKHKVYACEVTHQGLSSPVTKSFNRGEC | 0.43 | 0.68 | 0.6 | 0.9 | 1.5 | 0.7 | 0.1 | 0.4 |
| M103205H795-MY045/M103202L889-SK1 (antibody, human IgG1, kappa, Substitution put into M103205H795-SG1) heavy: not shown light: DIVMTQSPATLSLSPGERATLSCTSSQSVYHANWLSWFQQKPGQPPKLLIYWASTLAYGVPSRFSGSGSGTDFTLTISSLQPEDAATYYCAGGYGGGRYAFGQGTKVEIKRTVAAPSVFIFPPSDEQLKSGTASVVCLLNNFYPREAKVQWKVDNALQSGNSQESVTEQDSKDSTYSLSSTLTLSKADYEKHKVYACEVTHQGLSSPVTKSFNRGEC | 2.57 | 3.38 | 0.6 | 2.5 | 1.6 | 0.7 | 1.3 | 0.8 |
| M103205H795-MY048/M103202L889-SK1 (P271D) (antibody, human IgG1, kappa, Here the P271D molecule is meant; Put into M103205H795-SG1) heavy: not shown light: DIVMTQSPATLSLSPGERATLSCTSSQSVYHANWLSWFQQKPGQPPKLLIYWASTLAYGVPSRFSGSGSGTDFTLTISSLQPEDAATYYCAGGYGGGRYAFGQGTKVEIKRTVAAPSVFIFPPSDEQLKSGTASVVCLLNNFYPREAKVQWKVDNALQSGNSQESVTEQDSKDSTYSLSSTLTLSKADYEKHKVYACEVTHQGLSSPVTKSFNRGEC | 0.97 | 1.33 | 0.6 | 3.5 | 1.5 | 0.5 | 0.5 | 0.5 |
| M103205H795-MY044/M103202L889-SK1 (antibody, human IgG1, kappa, Substitution put into M103205H795-SG1) heavy: not shown light: DIVMTQSPATLSLSPGERATLSCTSSQSVYHANWLSWFQQKPGQPPKLLIYWASTLAYGVPSRFSGSGSGTDFTLTISSLQPEDAATYYCAGGYGGGRYAFGQGTKVEIKRTVAAPSVFIFPPSDEQLKSGTASVVCLLNNFYPREAKVQWKVDNALQSGNSQESVTEQDSKDSTYSLSSTLTLSKADYEKHKVYACEVTHQGLSSPVTKSFNRGEC | 0.77 | 0.9 | 1 | 0.3 | 1.4 | 1.2 | 1.5 | 1.1 |
